In US20230270861A1, “Inhibitors of the Artemin Pathway for Treatment of Cancer” (The University of Chicago, priority 2020, published 2023):

Tests used:
LLC tumor = assay: Tumor growth of LLC tumor-bearing mice treated with IR or anti-PD-L1 plus test agent; format: in vivo, mouse; details: LLC tumor-bearing B6 mice; agent combined with 20 Gy IR or anti-PD-L1
Procedure: Tumor models and treatments. 1×10^6 MC38, LLC, or B16-SIY tumor cells were subcutaneously injected into the flank of mice. On day 10 after tumor inoculation, tumors were either irradiated with one dose of 20 Gy or mice received sham treatment. For anti-PD-L1 treatment experiments, 200 μg anti-PD-L1 (10F.9G2) or isotype control was given by i.p. every three days for a total of four times starting on day 10 after tumor inoculation. For type I IFN blockade experiments, 200 μg anti-IFNAR1 were intratumorally injected on days 0 and 2 after irradiation. For CD4 or CD8 T cell depletion experiments, 200 μg anti-CD4 or anti-CD8 mAb was delivered four times by i.p. injection every 3 days starting 1 day before therapies. Artemin-neutralizing antibody was delivered i.t. at 1 μg/mouse starting on day of irradiation, every 2 days for 7 doses. For Ter-cell depletion, anti-ter119 was injected i.p. at 20 μg/mouse every 2 days for 4 doses. For Ter-cell or artemin treatment groups, mice were administered 1×10^7 purified Ter cells i.v. every other day for a total of three doses, or mice were treated with 0.5 μg/mouse artemin i.t. every other day starting on day 0 of therapies throughout the studies. For EPO treatment groups, mice were treated with 20 U/mouse EPO i.v. every other day throughout the studies, starting on day 0 of the therapies. IFN-γ was administered through intrasplenic injection on day 15 post tumor implantation at 2 μg/mouse for 1 dose. LOXO-292 was administered by oral gavaging at 100 μg/mouse/day throughout the entire studies, starting on day 0 of the therapies. Spleens were harvested on day 20 or at indicated times post-inoculation for analysis of spleen size or splenic cells. Tumor size was monitored and calculated with the formula for area (length×width).

MC38 cells = assay: Colony formation assay of irradiated MC38 cells; format: cell-based, mouse; details: 0, 1 or 3 Gy; 100 ng/mL artemin
Procedure: FIG. 40. Colony formation assay of MC38 cells treated with 0, 1, or 3 Gy irradiation. MC38 cells were either co-cultured with 2×10^6 Ter-cells (left) sorted from spleens of tumor-bearing mice, or treated with 100 ng/mL artemin (right). Representative data are shown from three experiments. Data are represented as mean±SD. *p<0.05, **p<0.01, and ***p<0.001.

MC38-OTI-zsGreen cells = assay: CD8+ T cell mediated killing (apoptosis) of MC38-OTI-zsGreen cells; format: cell-based, mouse; details: 100 ng/mL artemin for 6 h
Procedure: FIGS. 41A-41B. (FIG. 41A) Apoptosis of MC38 cells as analyzed by flow cytometry. 1×10^5 MC38-OTI-zsGreen cells were co-cultured with 2×10^5 CD8^+ T cells purified from OTI mice in 96-well U bottomed plates. Tumor cells were either co-cultured with 2×10^5 Ter-cells sorted from spleens of tumor-bearing mice or treated with 100 ng/mL artemin for 6 h. Representative data are shown from three experiments. Data are represented as mean±SD. *p<0.05, **p<0.01 and ***p<0.001. (FIG. 41B) Apoptosis of MC38 cells was analyzed by flow cytometry. 1×10^5 MC38-OTI-zsGreen cells were co-cultured with 2×10^5 CD8+ T cells purified from OTI mice in 96-well U bottom plates. Tumor cells were either co-cultured with 2×10^5 Ter-cells sorted from spleen of tumor-bearing mice or treated with 100 ng/mL artemin (ARTN) for 6 h. Representative data are shown from two or three experiments conducted with 3-5 mice or samples per group.

CD8 T cells = assay: In vitro CD8 T cell treatment with artemin; format: cell-based, mouse; details: 24 hours
Procedure: (§1) FIGS. 71A-71I. […] (FIGS. 71A-71E) CD8 T cells were purified from WT spleen and treated with recombinant artemin for 24 hours (150 ng/mL for FIGS. 71B, 71C, 71D, and 71E). T proliferation was examined (FIG. 71A), and the indicated effector molecules were analyzed by flow cytometry (FIGS. 71B, 71C, and 71D) and q-PCR (FIG. 71E). (FIGS. 71F-71I) MC38 murine colon cancer tumors were treated with artemin (i.t.), and single cell suspensions of tumors were stained with indicated markers and examined by flow cytometry (FIGS. 71F, 71G, 71H, and 71I).
In vitro testing: CD8 T cell treatment with artemin. CD8 T cells were isolated from spleens of naïve mice. CD8 T cells were cultured with T cell activation beads for 3 days and labeled with DNA dye cellTrace violet, followed by co-culturing with 150 ng/mL recombinant artemin for 24 hours. T cells were then washed and stimulated by stimulation cocktail and protein transport cocktail for 6 hours before being subjected to intracellular antibody staining.

[1] = test system: MC38 murine colon cancer tumors; assay: In vivo MC38 murine colon cancer treatment with artemin (i.t.), flow cytometry of tumor cells; design: species or system mouse
Procedure: as §1
FIGS. 72A-72C. […] MC38 tumor were digested into single cell suspension and stained with markers that characterize T cells, DCs, and MDSCs. Flow cytometry was performed. […] (FIG. 72B) Changes in CD4 T cells.
In vivo testing: MC38 murine colon cancer treatment with artemin. Established MC3 8 murine colon cancer tumors were treated with artemin by intra-tumoral injection. Tumors were digested into single cell suspension, stimulated and stained with intracellular antibodies. Cells were analyzed by flow cytometry.

[2] = test system: CD8 T cells and bone marrow derived MDSCs; assay: qPCR of possible artemin receptors in CD8 T cells and MDSCs co-cultured with artemin; format: cell-based, mouse; details: co-culture with artemin
Text: (§2) FIGS. 73A-73D. Study of the effects of artemin and radiation on mRNA expression of possible artemin receptors in different immune cells. (FIG. 73A) mRNA level of known GDNF receptors in CD8+ T cells after co-culture with artemin. (FIG. 73B) mRNA level of known GDNF receptors in MDSCs (CD11b+Ly6C+) cells. GFRα1, GFRα3 and NCAM expression in DC (FIG. 73C) and natural killer (NK) cells (FIG. 73D) in tumors responding to artemin or/and radiation treatments. R1, GFRα1; R3, GFRα3.
Quantitative PCR (qPCR). Expression of possible artemin receptors GFRα1 (primers: SEQ ID NOs: 5, 6), GFRα3 (primers: SEQ ID NOs: 7, 8), Syndecan 3 (primers: SEQ ID NOs: 9, 10), NCAM (primers: SEQ ID Nos: 11, 12), and RET (SEQ ID Nos: 13, 14) was analyzed by qPCR in CD8 T cells and bone marrow derived MDSCs during co-culture with artemin.

[3] = test system: Lewis lung carcinoma (LLC) tumors; assay: Flow cytometry of GFRα1, GFRα3 and NCAM in LLC tumors treated with artemin and/or IR; format: in vivo, mouse
Text: as §2
Radiation (IR) treatment analysis. We treated established Lewis lung carcinoma (LLC) tumors with control, artemin, IR, and artemin+IR (20 Gy IR). Flow cytometry with staining of GFRα1, GFRα3 and NCAM receptors was performed.

B1: artemin: Recombinant mouse artemin (1085-AR) from R&D Systems; neurotropic factor of the GDNF family (protein)
chain: AGTRSSRARTTDARGCRLRSQLVPVSALGLGHSSDELIRFRFCSGSCRRARSQHDLSLASLLGAGALRSPPGSRPISQPCCRPTRYEAVSFMDVNSTWRTVDHLSATACGCLG
Tumor growth: influence on the therapeutic effect of IR and PD-L1 blockade (LLC tumor): diminished the anti-tumor effects of IR and PD-L1 blockade | Radio-resistance of MC38 tumor cells (colony formation) (MC38 cells): increased the radio-resistance | CD8+ T cell mediated killing of tumor cells (MC38-OTI-zsGreen cells): impaired | CD8 T cell proliferation (CD8 T cells; 200 ng/mL): reduced CD8 T cell proliferation | Production of IFN-γ, granzyme B and TNFα in T cells (protein and RNA level) (CD8 T cells): decreases in production | CD4 T helper cell numbers [1]: not significantly changed | PD-L1 expression on dendritic cells (CD11C+) and MDSCs (CD11b+Ly6C+) [1]: induced PD-L1 expression | Treg percentage in CD4 T cells [1]: significantly increased | Frequency of total CD8 T cell among CD45+ cells ([1]; artemin i.t.): did not alter frequency | IFN-γ production in intratumoral T cells ([1]; artemin i.t.): not significant | Production of granzyme B and TNFα proteins in intratumoral T cells ([1]; artemin i.t.): significantly reduced | Expression of exhaustion markers PD-1, LAG3 and TIM3 ([1]; intratumoral T cells): did not change the expression | GFRα1 mRNA in MDSC cells [2]: induction of GFRα1 | GFRα3 mRNA in CD8 T cells [2]: Induction of GFRα3 | GFRα3 expression on NK cells [3]: induces GFRα3 expression
